Values quoted from earlier work in doi:10.1101/2024.03.27.586990.

Molecular target: Asp27 (UniProt position 27, WNLPADLAWFK)
Conditions: unbound state (no inhibitor), as described by this article

Dihydrofolate reductase (DHFR) (Escherichia coli)
pKa: 6.5
